Source: patent publication US20230054860

Molecular target: WDR26 (endogenous) (UniProt Q9H7D7)
UniProt Q9H7D7, sequence (Q9H7D7 whole entry): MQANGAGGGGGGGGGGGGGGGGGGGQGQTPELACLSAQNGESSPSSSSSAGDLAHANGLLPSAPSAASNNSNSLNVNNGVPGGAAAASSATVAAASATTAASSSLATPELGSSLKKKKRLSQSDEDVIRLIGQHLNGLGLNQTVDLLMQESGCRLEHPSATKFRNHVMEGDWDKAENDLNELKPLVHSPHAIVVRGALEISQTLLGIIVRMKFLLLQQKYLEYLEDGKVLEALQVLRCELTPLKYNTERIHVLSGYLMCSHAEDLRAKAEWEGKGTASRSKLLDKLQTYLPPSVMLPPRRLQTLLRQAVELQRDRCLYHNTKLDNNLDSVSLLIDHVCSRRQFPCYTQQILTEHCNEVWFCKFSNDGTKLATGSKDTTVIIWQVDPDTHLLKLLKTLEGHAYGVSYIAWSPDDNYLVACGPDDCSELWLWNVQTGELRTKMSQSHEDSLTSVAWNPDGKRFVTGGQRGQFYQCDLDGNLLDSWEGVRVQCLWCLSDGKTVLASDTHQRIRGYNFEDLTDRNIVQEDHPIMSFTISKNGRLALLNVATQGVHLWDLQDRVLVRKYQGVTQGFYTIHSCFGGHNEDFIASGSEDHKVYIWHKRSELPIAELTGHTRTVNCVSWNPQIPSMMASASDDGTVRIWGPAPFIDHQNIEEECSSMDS

AKT (endogenous)
AKT phosphorylation levels (pAKT S473, western blot): ultimately leading to a decrease in AKT phosphorylation levels
